Sequences and labels used below:
B1: Hammerhead Ribozyme (parent)
chain: ACCGGAUGUGCUUUCCGGUCUGAUGAGUCCGUGAGGACGAAACAG

This data set covers variants of B1. The data set can be described thus: self-cleavage, relative activity (ratio to wild type); higher = more cleavage; co-transcriptional.
Consider A1U U13A, for which the self-cleavage came out at 1.02.
As to C2A C3G, the self-cleavage was determined as 0.277.
For the variant C2A C3A, the self-cleavage worked out at 0.476.
As to C2A C3U, the self-cleavage came to 0.312.
The value for A1U G35C was 0.47; that for A1U G35A was 0.635.
A1U G35U: the self-cleavage turned out to be 0.451.
A1G G17A: the self-cleavage was 0.896.
As for A1G G17U, the self-cleavage stood at 1.02.
The value for A1G G17C was 0.585; that for A1U C29G was 0.448.
Turning to A1U C29U, the self-cleavage turned out to be 0.595.
Take A1U C29A: the self-cleavage turned out to be 0.435.
For C2A G10C, the self-cleavage came out at 0.662.
Consider C2A G10A, for which the self-cleavage amounted to 0.934.
As for C2A G10U, the self-cleavage is 0.88.
The value for C2A C43U was 0.308; that for C2A C43G was 0.338; that for C2A C43A was 0.333.
For the variant A1U U24G, the self-cleavage was 0.508.
For the variant A1U U24A, the self-cleavage was determined as 1.04.
As for A1U U24C, the figure is 0.726; as for C2A C38A, 0.381; as for C2A C38U, 0.606.
In the case of C2A C38G, the self-cleavage was 0.373.
In the case of A1U C20A, the self-cleavage is 0.37.
Turning to A1U C20G, the self-cleavage was 0.412.
Regarding A1U C20U, the self-cleavage amounted to 0.333.
With A1G U7C, the self-cleavage was 1.39.
On to A1G U7A, for which the self-cleavage is 1.31.
Take A1G U7G: the self-cleavage stood at 1.4.
Turning to A1G G35C, the self-cleavage amounted to 1.04.
In the case of A1G G35A, the self-cleavage was determined as 1.23.
Consider A1G G35U, for which the self-cleavage was determined as 0.947.
For the variant A1G G31A, the self-cleavage is 1.79.
For A1G G31U, the self-cleavage was 1.88.
Consider A1G G31C, for which the self-cleavage amounted to 1.64.
Regarding A1U U32A, the self-cleavage was 0.692.
As for A1U U32G, the figure is 0.465.
Turning to A1U U32C, the self-cleavage was 0.436.
As for A1G U19C, the self-cleavage turned out to be 2.02.
As to A1G U19G, the self-cleavage was 0.61.
On to A1G U19A, for which the self-cleavage worked out at 0.511.
With A1U G36A, the self-cleavage is 0.537.
The value for A1U G36C was 0.328; that for A1U G36U was 0.438.
Take A1U U12A: the self-cleavage was determined as 0.66.
With A1U U12G, the self-cleavage turned out to be 0.753.
As for A1U U12C, the self-cleavage was 0.546.
As for A1U G45A, the figure is 0.409; as for A1U G45C, 0.493.
A1U G45U: the self-cleavage came out at 0.585.
In the case of A1U U19G, the self-cleavage was 1.28.
For A1U U19A, the self-cleavage turned out to be 1.1.
On to A1U U19C, for which the self-cleavage stood at 0.617.
As for A1G U14G, the self-cleavage amounted to 1.85.
On to A1G U14A, for which the self-cleavage turned out to be 1.46.
Regarding A1G U14C, the self-cleavage is 1.19.
For the variant A1G G10U, the self-cleavage amounted to 1.99.
As for A1G G10C, the figure is 1.61; as for A1G G10A, 1.92; as for A1G C43G, 0.395.
A1G C43U: the self-cleavage was determined as 0.597.
In the case of A1G C43A, the self-cleavage came out at 0.444.
On to A1U A41G, for which the self-cleavage amounted to 0.414.
For the variant A1U A41C, the self-cleavage turned out to be 0.378.
In the case of A1U A41U, the self-cleavage was determined as 0.377.
On to A1U U7G, for which the self-cleavage worked out at 0.603.
For the variant A1U U7C, the self-cleavage was determined as 0.555.
As for A1U U7A, the self-cleavage amounted to 0.588.
Regarding C2A A37U, the self-cleavage was found to be 0.368.
Consider C2A A37G, for which the self-cleavage is 0.427.
As for C2A A37C, the figure is 0.376; as for C2A C15A, 0.378; as for C2A C15U, 0.466.
As for C2A C15G, the self-cleavage was 0.319.
As to C2A G17A, the self-cleavage amounted to 0.364.
As for C2A G17C, the self-cleavage is 0.359.
As for C2A G17U, the figure is 0.365; as for C2A G27U, 0.32.
In the case of C2A G27C, the self-cleavage was 0.339.
With C2A G27A, the self-cleavage stood at 0.438.
As to C2A U12A, the self-cleavage is 0.62.
Consider C2A U12G, for which the self-cleavage came to 0.736.
In the case of C2A U12C, the self-cleavage turned out to be 0.5.
With C2A A34G, the self-cleavage was 0.48.
As for C2A A34C, the figure is 0.387.
As for C2A A34U, the self-cleavage worked out at 0.402.
In the case of A1G U28A, the self-cleavage is 1.26.
The value for A1G U28G was 1.33; that for A1G U28C was 1.79.
As to C2A U14C, the self-cleavage was determined as 0.397.
As for C2A U14A, the self-cleavage was 0.509.
Consider C2A U9A, for which the self-cleavage stood at 0.563.
For C2A U9G, the self-cleavage was 0.44.
Take C2A U9C: the self-cleavage was found to be 0.695.
As for A1U C38A, the self-cleavage came to 0.528.
Consider A1U C38G, for which the self-cleavage is 0.33.
Turning to A1U C38U, the self-cleavage was determined as 0.583.
The value for C2A C29U was 0.584.
As to C2A C29A, the self-cleavage is 0.376.
In the case of C2A C29G, the self-cleavage came to 0.378.
In the case of A1U A44C, the self-cleavage came to 0.574.
On to A1U A44U, for which the self-cleavage was 0.425.
As for A1U A44G, the self-cleavage came out at 0.971.
As to A1U C15G, the self-cleavage was determined as 0.355.
Consider A1U C15A, for which the self-cleavage was 0.373.
In the case of A1U C15U, the self-cleavage stood at 0.55.
As for C2A G8C, the figure is 0.559; as for C2A G8A, 0.587; as for C2A G8U, 0.794.
Consider C2A, for which the self-cleavage turned out to be 0.866.
Turning to C2A C11G, the self-cleavage was found to be 0.828.
For the variant C2A C11A, the self-cleavage turned out to be 0.958.
For the variant C2A C11U, the self-cleavage is 0.431.
Turning to A1U, the self-cleavage stood at 0.853.
Regarding A1U G27U, the self-cleavage is 0.417.
Take A1U G27C: the self-cleavage worked out at 0.317.
As for A1U G27A, the figure is 0.437.
As for A1U A42U, the figure is 0.279; as for A1U A42C, 0.395.
With A1U A42G, the self-cleavage is 0.351.
As for C2A G18U, the self-cleavage was 1.21.
As for C2A G18C, the figure is 0.922; as for C2A G18A, 0.883; as for A1G G8U, 1.65.
The value for A1G G8A was 1.57; that for A1G G8C was 1.47.
The value for C2A A41G was 0.294; that for C2A A41C was 0.366; that for C2A A41U was 0.346.
With C2A G35C, the self-cleavage stood at 0.429.
As for C2A G35A, the figure is 0.402.
Turning to C2A G35U, the self-cleavage came to 0.457.
As for A1G U21G, the self-cleavage turned out to be 0.812.
Regarding A1G U21A, the self-cleavage was found to be 0.968.
The value for A1G U21C was 0.949; that for A1G G4A was 0.521; that for A1G G4U was 0.693.
As for A1G G4C, the self-cleavage was found to be 0.32.
As for A1G G22U, the figure is 0.408; as for A1G G22C, 0.376.
A1G G22A: the self-cleavage amounted to 0.384.
In the case of A1U C16G, the self-cleavage worked out at 0.459.
As for A1U C16U, the self-cleavage was found to be 0.431.
Consider A1U C16A, for which the self-cleavage worked out at 0.419.
Turning to C2A A42G, the self-cleavage came to 0.344.
Consider C2A A42U, for which the self-cleavage was determined as 0.332.
As to C2A A42C, the self-cleavage turned out to be 0.355.
In the case of A1U A26U, the self-cleavage was determined as 0.383.
As to A1U A26C, the self-cleavage is 0.402.
Take A1U A26G: the self-cleavage was 0.34.
Take A1U C43A: the self-cleavage worked out at 0.347.
Turning to A1U C43U, the self-cleavage was 0.413.
In the case of A1U C43G, the self-cleavage turned out to be 0.448.
The value for C2A G45A was 0.393; that for C2A G45C was 0.42; that for C2A G45U was 0.417.
As to C2A G31U, the self-cleavage was 0.828.
C2A G31C: the self-cleavage came out at 0.66.
For the variant C2A G31A, the self-cleavage stood at 0.969.
As to A1U A37C, the self-cleavage was determined as 0.556.
The value for A1U A37G was 0.734; that for A1U A37U was 0.464; that for C2A G22U was 0.34.
Take C2A G22A: the self-cleavage turned out to be 0.364.
For C2A G22C, the self-cleavage was 0.353.

The record behind these values is the RNAGym collection of RNA variant scans (doi:10.7554/elife.80360).
